According to patent US20150351390A1, “COMPOSITIONS AND METHODS FOR AUXIN-ANALOG CONJUGATION” (PIONEER HI-BRED INTERNATIONAL, INC., priority 2012, published 2015):

B1: Br040812: GH3 protein, Bra040812 (protein, listed as Brassica rapa)
chain: MSSIVELSSLEELTLNAEQIQDDLLEKILRLNSNTEYLRRFLHGSNDKELFKKNVPLANYEDVKPYIERVANGEPSDLISGGPVTRFFRSSGTSGGKQKIFPVNDEAIEQLGYVLALRSLVMSKHFSDNGVEQGKTMEFHYTKPESTTPSGLPVAAAFTSFFKSDYFKNRPSKSQYTSPDQVILCPDNKQSLYCHLLCGLSQRDEVVRFGATFAHALVRAIDFLESNWKELCGNIRLGHVSEWITDLGCRSSVSAIIGGPNPELADLIEQECSHKSWEGIVTRLWPKAKRIECVLTGQMAQYIPILDFYCNKLPLVSTVYGSSESIFGFNVDPLCKPQDVSYTFVPNTSYFEFLPVDHEGDMTSIVDLVNVKLGCYYEPVVTTCFGLNRYLIGDILEVTGFYNNTPQFRFVRRKNMVLSVETETTTEDDILKALARATFVLESSNLMLMDFTSSADISTFPGHYVFYWELKGKEVNDVLVLDEKTLMGCCYVLEESFGSTYRLKRRTGLIGALEIRVVEQGTFNSLTDYFISRGSSRAQYKTPLCINSSEASAVLENKVLARFHSEKSPPLDL
B2: Br029173: GH3 protein, Bra029173 (protein, listed as Brassica rapa)
chain: MSMWADLSDKLDEKVLEDLTSNVKQMQDDVLKEILTLNANTEYLRPFLHGSSDKELFKKNVPVTTYDDVKLFIDRVANGEPFDVISGKPVTGFSLSSGTSGGKRKMFPCNKKYLENLNFIYCYRSLVISKHFDGLEHGKGMVFNFCVPEQTTPSGLPVSAATTLFFKSDYFKNRPSYWHWSFTSPDEVILCLDNKQSLYCHLLCGIVLRDEVVKVGTAFVSTLLRVITFLEKHWKEICTNIRYGHLSEWITDISCRDSVSKILGEPNPELADLIENECNQKSWEGIIQRLWPKTKFIESIATGQMAQHIPTLEFYSNKLPLISSSYVSSETMFGININPLCKPQDVSYTFMPHFSYFEFLLVDAGDEVEIVDLVDVKLGCHYETLVTNHSGLHRYKMGDIVQVTGFYNNAPQFRFARRGNLVLSVHMEITTDQALLNAVTHAKMVLESSNLMLMDFTGYADISTTPGHYVLYWELKGKYSNDIAKIDDKVLVECCYVVEESLDNFYKEYRKNGSIGALEIRVVQQGTFDSLMEFFISQGASSTQYKTPICIKSTEAIAILERKVRARFFTDKSLSLKFSS
B3: Br031718: GH3 protein, Bra031718 (protein, listed as Brassica rapa)
chain: MSLGCDLSVLEELTSNAKQIQDDVLTKILKANTNTEYLSRFLEGSSEKELFKKNVPVVSYEDVKPYIDRVANGEPSDILSGKPITAFFRSTGTSSGEKKIFPANDNFEDILLGLALSSLVMSKHVDGYKQGKVMIFKFIQPISTTPCGLPLAPSITIIMKSKCYRSPGKRSTTPDEIIMCTDPKQSMYCQLLCGLVQRDEVVSVGALFASVLVQIIRFLEKYWKELCSNIRSGHVSDWITDHCCRDSVSTILGEPNPELADLIENECGQESWQGIVSRLWPKTKCVETIVTGIMAQYIPALEFYSDKLPIVSSIYGSSETFFGLNVNPLCKPQHVSYTFLPNMSYFEFIHVDADGEATGEIVDLVDVKSGGYYEPLVTNYSGLYRCRVGDVLHVTGFYNNAPQFRFVRRKNTVLSIFVESTTEEDVLKALDRATVVLESSDLMLTGFTCFGDVSTVPGHYVFYLELKAKVNNDTNVLLLDEKVLVEYCCVMEESLSSFYRSLRRKDGPIGPLEVRVVQQGTFDSLMEFFVSRGASITQYKTPICINSVEASRVLEDKVLARFFSDKSPTI
B4: Sm87623: GH3 protein, Selmo1|87623 (protein, listed as Selaginella moellendorffii)
chain: MDATAILSAIACDEQALGFMEHVTRHVSSVQDYVLQLLLEANAGTDYFQRHGLYGIPTKEEFRRLLPITTYSDMEADFQRLANGDESKTICAARVLEMLTSSGTSGGKQKLFPKSPSYDQEFVALNRVARAALNKKAPYASRGKSLQFFYVRKPGITSGGVTTTSGLSGYFTSPAFRQRKLDPESGYTSPDQVILCVDYQQASYCHLLCGLTQSQEVVSIGAPFASTLVRSLKALKDLWQELCVDIETGRVNDNIVSDLSVKHAVNALLKPDPKLAALVRRECSKSNWRGIVRRLWPRARIIQAIVTGSMQQYVPAIDFFSDGLPIASSIYAASECSTLGVNLSPVCSPYDVRYSPFPCFVYYEFLPVSSSSSSSPRRDDLVQLAEVELGREYELVITTRAGLYRYRVGDVLKVVGFKNSMPQFSFVGRAGVLLSVDTDKTDEVELHTAVTTAAAVMAKRNRGDVRLLDYTSRVNLSSQPGHYVVYWELSLDAAMESLEAELRECCSVMEESLSVVYRRNRREGSVGALEIKVVEPGTFDRIVDHVVFVGQGSIGQYKTPRCARDPAVLRILESSVVESSRAR
B5: Sm93250: GH3 protein, Selmo1|93250 (protein, listed as Selaginella moellendorffii)
chain: MDPALFRDDIESKTKDAAAVQANLLSQMMELNGETEYLRRYGGRFDSLPIIEYHDVADEVQRIANGDTSPILTAEPVVRFFKSSGTVTGEPKLIPATSKSLELLFRRPVYMMESDVCLGFLFAKPENKSPGGLPVSTTSSMFFKVQGENLEKMFTSPMKLLLAPDINQSLYCQLLCGLIRSEDVTQVFAALAITLVEALRLLEEAWSELADDVQTGTLNSKITDPTLRSSLSLCLRPNLKLAQSIRKECTADNAWCGIVERLWPKTKVIVTITTGGMAPYAPAVRKYGGSVPIVSGDYVCTECVLGFNLDPFCPPESVSFTIHPEYAYYEFLHYPQKLTDGSTVKLVDVKVGEEYELVVSTWSGLYRYKVGDIVRVTGFHNFSPNISFVHRLNAELDIAGERSTEAELQVAVQKSQHCLPASQELVDFTCHQDGQRYLIFWEIKNGDSLNPMILETCCCVLDTSLTERYKQRRENGLIGPLRLCIVRGKTFKALQQYSLEKGINPTQYKTPRCITSPEMIAILQAGITQDCQTPA
B6: Sm85812: GH3 protein, Selmo1|85812 (protein, listed as Selaginella moellendorffii)
chain: MHSICLKSMEHATKNAAVIQRELLQQILEKNAGTEYLTRHGLDEESNLVDGFHKLPLVEYNDIEADIKRIADGDTGRILCSDPISQFFISSGTTTGRSKLIPVTKEANSRFFRPPLISPAWHRVFTINPDETYLAFWFASKQSLTKGGFKAETVTTSGLNSAHFKRAAASFVTPHKIFQSTSMYQCLYCHLLCGLLRREEVTVVISAFAFALTEAFRVLEQVWSELLEDIEAGSLSSRITDPILRLAMSGIAPPSPELAEQLRREFRSFSMDGIVQRLWPNAKSVVAVTTGAMAPYAPRLRALAGKTPLVCGNYFSSECLIGINLSPASSPATFTVNPEFAYFEFLSYHDGETKLNGLEEQRPVGLTEVTIGEKYEIVVTTRSGLYRYRLGDVVQVAGFFNSSPSLRFLFRRNVVMSVATDKTDEFELQAVVHKASLLLRSSSQLHDFAGYADFSSIPGHYAIFWELNHGGSMDPSTLQDCCELLDVSLNDPYLRGRSSGAIGPLKLCVVRGGSFRELFEQHVARGGSGSQYKSCRCVASKQAIDLLRRNTLQQALSSKFPNPWKLSIKSLELDQ

Assay: LC-MS assay of GH3 conjugation of IAA with Asp or Glu
Format: biochemical
Conditions: LC-MS; IAA with Asp
How it was run: (§1)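 N-terminal His-tagged GH3 homologs, expressed in E. coli C41(DE3) and Ni-NTA purified, at 44 to 164 μg/mL incubated 3 h at 30 °C in 20 mM Tris-HCl pH 8.0, 5 mM MgCl2, 1 mM DTT, 5 mM ATP, 5 mM auxin (IAA, 2,4-D or dicamba) and 5 mM Asp or Glu. Conjugates quantified by LC-MS against standards after MeOH precipitation; kinetics from Michaelis-Menten fits of initial velocities.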

Row | Molecule | Detected auxin conjugates: IAA-Asp
1 | B1 | Yes
2 | B2 | Yes
3 | B3 | No
4 | B4 | Yes
5 | B5 | Yes
6 | B6 | Yes

Same assay, conditions: LC-MS; IAA with Glu

Row | Molecule | Detected auxin conjugates: IAA-Glu
7 | B1 | Yes
8 | B2 | Yes
9 | B3 | No
10 | B4 | No
11 | B5 | No
12 | B6 | No

Assay: LC-MS assay of GH3 conjugation of dicamba with Asp or Glu
Format: biochemical
Conditions: LC-MS; dicamba with Asp
How it was run: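 Dicamba–amino acid (Asp or Glu) conjugates formed by purified his-tagged GH3 enzymes were detected by LC-MS on an AB Sciex 4000 QTrap with Shimadzu Nexera UHPLC and a Phenomenex Luna 3 μm Phenyl-Hexyl column, after 20× dilution of the supernatant in water. Standards were used to quantify conjugates. Protein concentration was determined by Bradford assay.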

Row | Molecule | Detected auxin conjugates: Dicamba-Asp
13 | B1 | No
14 | B2 | No
15 | B3 | No
16 | B4 | No
17 | B5 | No
18 | B6 | No

Same assay, conditions: LC-MS; dicamba with Glu

Row | Molecule | Detected auxin conjugates: Dicamba-Glu
19 | B1 | No
20 | B2 | No
21 | B3 | No
22 | B4 | No
23 | B5 | No
24 | B6 | No

Assay: LC-MS assay of GH3 conjugation of 2,4-D with Asp or Glu
Format: biochemical
Conditions: LC-MS; 2,4-D with Asp
How it was run: as §1

Row | Molecule | Detected auxin conjugates: 2,4-D-Asp
25 | B1 | Yes
26 | B2 | Yes
27 | B3 | No
28 | B4 | Yes
29 | B5 | No
30 | B6 | No

Same assay, conditions: LC-MS; 2,4-D with Glu

Row | Molecule | Detected auxin conjugates: 2,4-D-Glu
31 | B1 | Yes
32 | B2 | Yes
33 | B3 | No
34 | B4 | No
35 | B5 | No
36 | B6 | No
